{
  "source": "patent US20260031189A1",
  "about": "(BIONTECH US, published 2026)",
  "biological_target": "S353-369",
  "assay": "FP assay; pair as listed in Table 23",
  "data": [
    {"binder": "HLA-DRA*01:01/DRB4*01:03 soluble heterodimer (receptor, also called HLA-DRB4*01:03/DRA*01:01) MHC II alpha: not shown MHC II beta: not shown", "values": [
      {"measurement": "binding result", "result": "binds"}
    ]}
  ]
}
